According to PMC5802723, “Pro-metastatic collagen lysyl hydroxylase dimer assemblies stabilized by Fe^2+-binding” (Nature Communications, 2018):

B1: Human LH2 recombinant protein (residues 33-758), wild type (enzyme, UniProt O00469-2 33-758, looked up)
chain: SIPTDKLLVITVATKESDGFHRFMQSAKYFNYTVKVLGQGEEWRGGDGINSIGGGQKVRLMKEVMEHYADQDDLVVMFTECFDVIFAGGPEEVLKKFQKANHKVVFAADGILWPDKRLADKYPVVHIGKRYLNSGGFIGYAPYVNRIVQQWNLQDNDDDQLFYTKVYIDPLKREAINITLDHKCKIFQTLNGAVDEVVLKFENGKARAKNTFYETLPVAINGNGPTKILLNYFGNYVPNSWTQDNGCTLCEFDTVDLSAVDVHPNVSIGVFIEQPTPFLPRFLDILLTLDYPKEALKLFIHNKEVYHEKDIKVFFDKAKHEIKTIKIVGPEENLSQAEARNMGMDFCRQDEKCDYYFSVDADVVLTNPRTLKILIEQNRKIIAPLVTRHGKLWSNFWGALSPDGYYARSEDYVDIVQGNRVGVWNVPYMANVYLIKGKTLRSEMNERNYFVRDKLDPDMALCRNAREMTLQREKDSPTPETFQMLSPPKGVFMYISNRHEFGRLLSTANYNTSHYNNDLWQIFENPVDWKEKYINRDYSKIFTENIVEQPCPDVFWFPIFSEKACDELVEEMEHYGKWSGGKHHDSRISGGYENVPTDDIHMKQVDLENVWLHFIREFIAPVTLKVFAGYYTKGFALLNFVVKYSPERQRSLRPHHDASTFTINIALNNVGEDFQGGGCKFLRYNCSIESPRKGWSFMHPGRLTHLHEGLPVKNGTRYIAVSFIDP
notes: Human lysyl hydroxylase 2 (LH2), residues 33-758; the printed end at 758 and the residues D689 and L735 fit the 758-residue isoform; also called lysyl hydroxylase 2; source: ExpiCHO cells, transient transfection, secreted

How the values were obtained:
[1] = biological target: bovine skin collagen substrate containing no telopeptides (Bovine PureCol) (bovine) (UniProt P02453)
Chain of bovine skin collagen substrate containing no telopeptides (Bovine PureCol) (bovine) (P02453 162-1217, chain 1 of 2): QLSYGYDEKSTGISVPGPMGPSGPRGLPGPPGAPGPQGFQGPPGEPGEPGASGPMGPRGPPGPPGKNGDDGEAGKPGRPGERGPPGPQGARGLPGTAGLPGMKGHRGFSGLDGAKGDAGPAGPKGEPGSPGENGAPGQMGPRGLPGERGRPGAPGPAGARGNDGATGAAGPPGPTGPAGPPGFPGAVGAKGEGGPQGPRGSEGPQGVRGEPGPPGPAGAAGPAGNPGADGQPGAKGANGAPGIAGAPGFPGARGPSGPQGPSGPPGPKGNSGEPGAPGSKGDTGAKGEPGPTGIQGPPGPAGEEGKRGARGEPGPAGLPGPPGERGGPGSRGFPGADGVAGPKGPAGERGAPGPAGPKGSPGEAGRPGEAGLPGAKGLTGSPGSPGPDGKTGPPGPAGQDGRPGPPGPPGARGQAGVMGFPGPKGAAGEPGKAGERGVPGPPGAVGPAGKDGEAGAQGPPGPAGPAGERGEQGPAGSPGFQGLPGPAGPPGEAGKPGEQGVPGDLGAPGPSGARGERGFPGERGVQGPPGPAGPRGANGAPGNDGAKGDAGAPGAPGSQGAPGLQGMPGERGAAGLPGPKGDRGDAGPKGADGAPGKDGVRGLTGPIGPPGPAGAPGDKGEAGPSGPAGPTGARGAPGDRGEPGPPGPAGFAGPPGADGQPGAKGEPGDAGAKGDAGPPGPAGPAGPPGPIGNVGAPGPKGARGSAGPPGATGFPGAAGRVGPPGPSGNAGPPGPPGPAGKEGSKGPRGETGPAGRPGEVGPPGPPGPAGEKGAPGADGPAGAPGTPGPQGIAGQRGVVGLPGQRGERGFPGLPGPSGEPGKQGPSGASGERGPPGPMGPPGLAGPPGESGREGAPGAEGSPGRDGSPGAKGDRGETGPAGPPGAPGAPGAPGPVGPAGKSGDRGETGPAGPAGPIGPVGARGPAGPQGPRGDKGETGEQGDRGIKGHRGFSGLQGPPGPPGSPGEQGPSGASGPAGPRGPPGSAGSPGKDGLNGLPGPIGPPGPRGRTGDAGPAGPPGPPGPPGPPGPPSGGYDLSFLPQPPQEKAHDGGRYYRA
Chain of bovine skin collagen substrate containing no telopeptides (Bovine PureCol) (bovine) (P02465 80-1117, chain 2 of 2, further chain): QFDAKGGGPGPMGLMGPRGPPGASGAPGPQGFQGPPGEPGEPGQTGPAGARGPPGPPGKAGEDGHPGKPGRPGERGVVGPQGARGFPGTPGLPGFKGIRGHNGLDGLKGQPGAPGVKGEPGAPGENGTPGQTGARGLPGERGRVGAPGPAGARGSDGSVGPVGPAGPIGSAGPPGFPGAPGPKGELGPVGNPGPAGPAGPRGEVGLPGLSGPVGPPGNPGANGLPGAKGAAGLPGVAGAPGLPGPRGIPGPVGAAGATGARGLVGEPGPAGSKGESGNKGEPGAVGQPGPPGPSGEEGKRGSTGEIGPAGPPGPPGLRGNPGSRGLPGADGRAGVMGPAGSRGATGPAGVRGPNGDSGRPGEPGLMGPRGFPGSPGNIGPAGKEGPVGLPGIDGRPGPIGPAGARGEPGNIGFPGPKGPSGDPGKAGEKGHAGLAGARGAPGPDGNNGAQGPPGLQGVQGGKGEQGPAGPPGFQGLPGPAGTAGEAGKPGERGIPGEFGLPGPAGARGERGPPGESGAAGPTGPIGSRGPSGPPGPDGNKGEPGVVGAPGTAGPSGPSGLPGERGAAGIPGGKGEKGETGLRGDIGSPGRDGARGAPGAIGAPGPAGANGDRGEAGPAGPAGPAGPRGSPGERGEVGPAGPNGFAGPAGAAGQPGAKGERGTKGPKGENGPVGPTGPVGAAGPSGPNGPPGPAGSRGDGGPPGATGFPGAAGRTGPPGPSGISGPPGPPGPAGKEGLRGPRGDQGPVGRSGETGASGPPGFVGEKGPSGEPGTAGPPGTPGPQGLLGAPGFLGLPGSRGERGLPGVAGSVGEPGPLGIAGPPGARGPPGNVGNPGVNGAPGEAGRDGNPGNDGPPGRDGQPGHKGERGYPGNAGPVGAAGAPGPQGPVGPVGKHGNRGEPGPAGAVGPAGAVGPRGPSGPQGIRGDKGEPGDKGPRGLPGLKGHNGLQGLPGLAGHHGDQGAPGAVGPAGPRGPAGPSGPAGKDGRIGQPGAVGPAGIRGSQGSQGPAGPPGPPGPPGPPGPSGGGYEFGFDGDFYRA

[2] = biological target: L230 LH domain (amino acids 680-895), wild type (Acanthamoeba polyphaga mimivirus); test: MST; Atto647-labelled L230 (40 nM, 10 ul) mixed with equal volume of unlabelled L230 (8.5 uM-0.5 nM); incubated at 25 °C for 15 min, measured at 20 °C; dimer to monomers
[3] = biological target: L230 LH domain (amino acids 680-895), wild type (Acanthamoeba polyphaga mimivirus); test: SEC-MALS; L230 variants, 3 mg/ml, 150 ul, Superdex 75; 20 mM Tris pH 8, 200 mM NaCl, 0.02% sodium azide, room temperature
[4] = biological target: L230 LH domain (amino acids 680-895), wild type (Acanthamoeba polyphaga mimivirus); test: SAXS; L230 LH domain in solution, three concentrations diluted from 6 mg/ml, merged; SIBYLS beamline
[5] = biological target: the molecule itself; test: SEC-MALS; Human LH2 proteins, 2 mg/ml, 100 ul, Superdex 200; 20 mM Tris pH 8, 200 mM NaCl, 0.02% sodium azide, room temperature

| Molecule | estimated Km for bovine skin collagen in the enzymatic assay (succinate production); achievable collagen concentrations did not saturate activity [1] | Kd [2] | stoichiometry N [3] | stoichiometry N [4] | binding result [5] |
| --- | --- | --- | --- | --- | --- |
| L230 LH domain (amino acids 680-895) K804E (domain or fragment) | 9.6 µM |  |  |  |  |
| L230 LH domain (amino acids 680-895), wild type (domain or fragment) | 2.6 µM | 23.9 nM | 2 | 2 |  |
| B1 |  |  |  |  | binds |
